# T1: native full length untagged APOL1-G0 (iAPOL1-CHO, construct a) (human, UniProt O14791 28-398)
# T1 construct: Also used as CHO lysate in western blots; also called iAPOL1-G0; WT iAPOL1-G0
# T1 sequence: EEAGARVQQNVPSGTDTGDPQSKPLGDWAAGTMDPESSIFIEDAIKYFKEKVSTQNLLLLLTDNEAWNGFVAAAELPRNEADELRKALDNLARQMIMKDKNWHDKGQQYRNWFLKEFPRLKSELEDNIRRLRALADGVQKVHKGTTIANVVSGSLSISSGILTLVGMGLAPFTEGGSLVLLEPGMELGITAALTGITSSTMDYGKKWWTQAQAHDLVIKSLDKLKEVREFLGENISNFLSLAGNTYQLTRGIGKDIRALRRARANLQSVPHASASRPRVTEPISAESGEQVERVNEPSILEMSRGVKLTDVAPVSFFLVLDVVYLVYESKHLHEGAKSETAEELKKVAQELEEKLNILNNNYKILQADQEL
# T2: APOL6-myc-FLAG (human, UniProt Q9BWW8 1-343)
# T2 construct: whole, on cells; In fixed, permeabilized transfected COS cells; untagged APOL6 in the western blots; not shown: C-terminal myc-FLAG tag
# T2 sequence (looked up): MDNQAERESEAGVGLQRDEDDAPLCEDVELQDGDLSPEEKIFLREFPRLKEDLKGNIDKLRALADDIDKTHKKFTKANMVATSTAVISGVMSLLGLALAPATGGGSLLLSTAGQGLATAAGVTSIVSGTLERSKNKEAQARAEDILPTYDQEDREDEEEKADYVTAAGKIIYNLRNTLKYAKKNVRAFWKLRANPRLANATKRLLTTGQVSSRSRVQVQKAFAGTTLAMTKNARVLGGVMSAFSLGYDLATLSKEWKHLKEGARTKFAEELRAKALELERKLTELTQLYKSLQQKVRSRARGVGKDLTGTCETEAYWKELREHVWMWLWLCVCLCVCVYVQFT
# Key:
# [1] = biological target: T1, native full length untagged APOL1-G0 …; experiment: immunofluorescence, PFA-fixed permeabilized iAPOL1-CHO cells
# Excerpt: APOL2 is shown stained with 3.6D12 (a mAb to the N-terminal pore-forming domain (PFD)), although similar results were obtained with the other 43 APOL2-cross reactors (all to the PFD, data not shown). […] APOL1 is shown stained with PFD mAb 3.7D6, membrane-addressing domain (MAD) mAb 3.3A8, or SRA-interacting domain (SRA-ID) mAb 3.1C1, each detected with Alexa488 anti-mouse (see Example 1 below for epitope mapping), although similar results were obtained with all the other APOL1-specific antibodies to all three domains (data not shown). The reticular ER pattern persists in digitonin (plasma membrane only)-permeabilized cells for APOL2, but not APOL1, indicating APOL2 is on the cytoplasmic face of the ER, while APOL1 is inside. The nuclear membrane signal for APOL1 with digitonin is also seen without detergent in some cells since PFA semi-permeabilizes the nuclear membrane (data not shown). With digitonin, some of the more sensitive antibodies, including the PFD (3.7D6) and SRA-ID (3.1C1) antibodies shown here (but not MAD antibody 3.3A8), additionally detected APOL1 on the plasma membrane (arrowhead), which is topologically equivalent to the ER lumen.
# (§1) Cells were plated on LabTekII (Nalge Nunc 154534) slides and fixed at 70-100% confluency. For mAb screening, cells were fixed/permeabilized for 5 min in −20° C. methanol (EMD MX0485-6). […]
# [2] = biological target: T2, APOL6-myc-FLAG; experiment: immunofluorescence on transfected COS cells; grade (also no cross-reaction by western blot)
# Excerpt: COS cells were transfected as in FIG. 31A except APOL1 and APOL2 were also C-terminally myc-FLAG tagged. Overlays of APOL with epitope tags: either mouse anti-FLAG-M2 or mouse anti-myc 9E10 for anti-APOL1 rabmabs; or rabbit anti-Myc 71D10 in conjunction with mouse anti-APOL1. Signals indicate the two antibodies overlap (i.e. anti-APOL1 cross-reacts with that APOL); signals (epitope tag only) indicate no cross-reactivity. Alexa647 anti-rabbit or mouse were used for the tags to rule out the possibility that any colocalization was a bleed-through artifact. Sparsely transfected areas were imaged to permit evaluation of background staining in adjacent untransfected cells—DAPI nuclear staining identifies both untransfected and transfected cell nuclei. […] Note that none of the antibodies cross-reacted with the more distantly related APOL6. *, APOL2-myc-FLAG is presumably misfolded, since it is not as cross-reactive as untagged APOL2 (compare FIG. 31A) with several antibodies. Commercial antibodies are Sigma HPA018885, Epitomics EPR2907 (2) (Epito) and Proteintech 11486-2-AP (Ptech).
# as §1
binding result [1],binding result [2],Binder
binds,,"antibody 3.1C1 (antibody, V domains shown, Mouse mAb, cloned as murine IgG2a LALAPG; not written separately; also called SRA-ID mAb 3.1C1) VH: QVQLQQSGPELVKPGASVRISCKASGYTFTNYFIHWVKQRPGQGLEWIGWINPGNLNTKYTEEFKGKATLTADKSSSTAYIQLNSLTSEDSAVYFCVNGNPFVYWGQGTLVTVSA VL: DIVMTQSPSSLTVIAGEKVTLNCKSSQSLLNSGNQKKYLTWLQQKPGQPPKLLIYWTSTRDSGVPDRFTGSGSGTDFTLTISSVQAEDLAVYYCQNDYSYPLTFGAGTKLEIKR"
,no binding (tested: 1 µg/ml),"antibody 4.12E5 (antibody, V domains shown, Mouse mAb, cloned as murine IgG2a LALAPG) VH: EVQLQQSGPELVKTGASVKISCKASGYSFTGYFMHWVKQSHGKSLEWIGYISCYNGASVYNQRFKGKATFTIDTSSSTAYMQFNSLTSEDSAVYYCARDVLRYPRYAVDYWGQGTSVTVSS VL: not shown"
